Experimental findings from US20150268247A1, “Assay for Screening of Anti-Viral Compounds That Inhibit Specific Interaction Interfaces Between Cullin5 and an ElonginB/ElonginC/ CBF-beta/HIV-1 Vif Complex” (UNIVERSITY OF ROCHESTER, priority 2012, published 2015) are described below.

The test addresses T1, Cul5(N) (Homo sapiens, UniProt Q93034, L345D/V341R).
T1 construct: GST with 3C protease site (N, cleaved yes); made in house; host or cells: E. coli BL21(DE3), as for VifC/EloB/C
T1 sequence (Q93034 with tags, fused parts or gaps V341R/L345D): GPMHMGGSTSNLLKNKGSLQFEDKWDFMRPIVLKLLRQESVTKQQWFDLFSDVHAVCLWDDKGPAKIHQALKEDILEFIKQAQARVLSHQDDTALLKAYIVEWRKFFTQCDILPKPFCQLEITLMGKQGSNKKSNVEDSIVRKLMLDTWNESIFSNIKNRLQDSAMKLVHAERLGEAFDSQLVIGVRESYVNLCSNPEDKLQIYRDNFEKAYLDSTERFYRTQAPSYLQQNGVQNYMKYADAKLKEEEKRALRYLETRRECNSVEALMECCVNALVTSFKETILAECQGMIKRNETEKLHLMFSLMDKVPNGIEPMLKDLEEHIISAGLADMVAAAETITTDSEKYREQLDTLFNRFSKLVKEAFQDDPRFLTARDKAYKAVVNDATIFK
Nature of the test: ITC titration of Cul5(N) to CBFβ alone. In kind it is binding. The settings on record: FIG. 4D.

Description: ITC experiments were conducted with a VP-ITC isothermal titration calorimeter (GE Healthcare) at temperatures ranging from 293.15 to 308.15 K using a reference power of 15 μcal s^−1 and a 307 rpm stirring rate. Purified protein was dialyzed for 8 h at 4° C. against 1300 volumes of ITC buffer A [0.125 M NaCl, 0.02 M HEPES (pH 7.4), 0.0002 M TCEP] or ITC buffer B [0.125 M NaCl, 0.02 M phosphate (pH 7.4), 0.0002 M TCEP]. Twenty-nine 10 μl aliquots of protein in the syringe were injected into the sample cell at time intervals ranging from 240 to 360 s. The concentration of protein in the syringe ranged from 120 to 210 μM, while the concentration of protein in the sample cell ranged from 12 to 27 μM. Errors in the thermodynamic parameters were obtained from the standard deviation resulting from average values with at least two replicates. […] As such, for all protein-into-protein experiments, the heats of injection were accounted for by subtracting the average heat of the last three injections from each data point of an experiment. All data were fit with the “One Set of Sites” curve-fitting model to determine the parameters Ka, n, and AH using the Origin software v7.0 (GE Healthcare). ΔG was calculated from ΔG=−RT ln Ka, where R=1.9872 cal K^−1 mol^−1, and T=absolute temperature (Kelvin). ΔS was calculated from the equation, ΔG=ΔH−TΔS.

B1: CBFβ: Recombinant human core-binding factor β subunit isoform 2 (protein, listed as Homo sapiens)
chain: MGHHHHHHLEVLFQGPPRVVPDQRSKFENEEFFRKLSRECEIKYTGFRDRPHEERQARFQNACRDGRSEIAFVATGTNLSLQFFPASWQGEQRQTPSREYVDLEREAGKVYLKAPMILNGVCVIWKGWIDLQRLDGMGCLEFDEERAQQEDALAQQAFEEARRRTREFEDRDRSHREEMEVRVSQLLAVTGKKTTRP
On to B1, for which the “interaction of CBFβ with Cul5(N) alone” value is reported as “did not interact”.
